{"source": "the nanobody polyreactivity screen of Harvey et al. (2022)"}
{"test": "yeast display, Sf9 membrane polyspecificity reagent, FACS + sequencing; frameworks hold sequencing errors", "in_short": "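A synthetic nanobody library was expressed on Saccharomyces cerevisiae BJ5465 by galactose induction for 36–48 hours. The library was stained for 1 hour at 4 °C with 10% biotinylated, detergent-solubilized Sf9 membrane reagent and enriched with streptavidin microbeads before FACS. Low and high (top ~1%) gates were set on anti-HA fluorescence for expression and streptavidin fluorescence for reagent binding, and each polyreactivity label reflects the gate of origin.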"}
{"sequence": "QVQLVESGGGLVQAGGSLRLSCAASGFTFWPNAMGWYRQAPGKERELVAAINWSGGSTYYADSVKGRFTISRDNAKNSVYLQMNSLKPEDTAVYYCNADPYLLEHDYWGQGTQVSVSS", "polyreactivity (PSR sort gate)": "low polyreactivity"}
{"sequence": "QVQLVESGGGLVQAGGSLRLSCAASGFTFWPNAMGWYRQAPGKERELVAAINWSGGSTYYADSVKGRFTISRDNAKNTVFLQLNSLKPEDTAVYYCAAVSYDWYVGYEFWGQGTQVTVSS", "polyreactivity (PSR sort gate)": "low polyreactivity"}
{"sequence": "QVQLVESGGGLVQAGGSLRLSCAASGFTFWQYAMGWYRQAPGKERELVAAITRDVGSTYYADSVKGRFTISRDNAKNTVYLQMNSLKPEDTAVYYCAKLFGGTYYEYDYWGQGTHVTVSS", "polyreactivity (PSR sort gate)": "low polyreactivity"}
{"sequence": "QVQLVESGGGLVQAGGSLRLSCAASGFTFWRNAMGLYRQAPGKERELDAAISWRGGSTYYADCVKGRFTISRDNAKNTVYFQMNSLKPEDTAVYYCNVVYFRYYSGEFDYWGQGTQVTVSS", "polyreactivity (PSR sort gate)": "high polyreactivity"}
{"sequence": "QVQLVESGGGLVQAGGSLRLSCAASGFTFWRNTMGSYRQARGKEREFVAAIDWSGGSTTYADSVKGRFTISRDNAKNTVYLQMNSLKKEDTAVYYCAAAERRRHYWWGQESDYWGQGTQVTVSS", "polyreactivity (PSR sort gate)": "low polyreactivity"}
{"sequence": "QVQLVESGGGLVQAGGSLRLSCAASGFTFWRYAMGWYRQAPGKDRELVAAISSSGGSTYYADSVKGRFTISRDNAKNTVYLQMNSLKPEVTAVYYCATSVRFVRGWGYSYRGYDYWGQGTQVTVSS", "polyreactivity (PSR sort gate)": "high polyreactivity"}
{"sequence": "QVQLVESGGGLVQAGGSLRLSCAASGFTFWSYAMGWYRQAPGKERELVAAISRNGGRTYYADSVKGRFTISRDNAKNTVYVQMNSLKPEDTAVYYCATRARNRYTEMDYWGQGTQVTVSS", "polyreactivity (PSR sort gate)": "high polyreactivity"}
{"sequence": "QVQLVESGGGLVQAGGSLRLSCAASGFTFWSYAMGWYRQAPGKERELVAAISSSGDSTYYADSVKGRFTISRDNAKNTVYLQMNSLKPEDTAVYYCAAGTHTDYGRYYYWGQGTQVTVSS", "polyreactivity (PSR sort gate)": "low polyreactivity"}
{"sequence": "QVQLVESGGGLVQAGGSLRLSCAASGFTFWTYAMGWYRQAPGKERELVAAISTSGGSTYYADSVKGRFTISRDNAKNTVYLQINSLKPEDTAVYYCAAYAIGEHFRARYGYWGQGTQVTVSS", "polyreactivity (PSR sort gate)": "high polyreactivity"}
{"sequence": "QVQLVESGGGLVQAGGSLRLSCAASGFTFWTYAMGWYRQAPGKERELVAAITGIGGSTYYADSVKGRFTISRDNAKNTVYLQMNSLKPEDTAVYYCAARYQATYPSMGYWGQGTQVTVSS", "polyreactivity (PSR sort gate)": "low polyreactivity"}
{"sequence": "QVQLVESGGGLVQAGGSLRLSCAASGFTFWVYAMGWYRQAPGKERELVADISSGGSTNYADSVKGRFTISRDNAKNTVYLQMNSLKPEDTAVYYCATYRARWTWYTRYDYWGQGTQVTVSS", "polyreactivity (PSR sort gate)": "high polyreactivity"}
{"sequence": "QVQLVESGGGLVQAGGSLRLSCAASGFTFWYYAMGCYRQAPGKERELVPSISSIGGSTYYADSVKGRFTISRDNAKYTVYLQMNSLKPEDTAVYYCAARYKFLRGGVRRDYLGQGTQVTVSS", "polyreactivity (PSR sort gate)": "high polyreactivity"}
{"sequence": "QVQLVESGGGLVQAGGSLRLSCAASGFTFWYYAMGWYRPAPGNERELVASISRTGGTTYYADSVKGRFTISRDNAKNTVDLQMTSLKPEDTAVYYCNARPKVYDREYDYWGQGTQVTVSS", "polyreactivity (PSR sort gate)": "high polyreactivity"}
{"sequence": "QVQLVESGGGLVQAGGSLRLSCAASGFTFWYYAMGWYRQAPGKERELVAAITYNGDRTYYADSVKGRFTISRDNAKNTVYLQMNSLKPEDTAVYYCAAAFVSVRKRYGYWGQGTQVTVSS", "polyreactivity (PSR sort gate)": "high polyreactivity"}
{"sequence": "QVQLVESGGGLVQAGGSLRLSCAASGFTFWYYAMGWYRQAPGKERELVASISSIGGSTYYADSVKGRFTISRDNAKNTVYLQMNSLKPEDTAVYYCAARYKFLRGGVRRDYWGQGTQVTVSS", "polyreactivity (PSR sort gate)": "high polyreactivity"}
{"sequence": "QVQLVESGGGLVQAGGSLRLSCAASGFTFWYYTMGWYRQAPGKERELVAAITGRGGTTHYADSVKGRFTISRDNAKNTVYLQMNSLKPEDTAVYYCAARAYRPSLSVVRGGYWGQGTQVTVLS", "polyreactivity (PSR sort gate)": "high polyreactivity"}
{"sequence": "QVQLVESGGGLVQAGGSLRLSCAASGFTFYAYAMGWYRQAPGKERELVAVISWSGGSTYYADSVKGRFTISRDNAKNTVYLQMNSLKPEDTAVYYCAADSLESYPDYEYDYWGQGTQVTVSS", "polyreactivity (PSR sort gate)": "low polyreactivity"}
{"sequence": "QVQLVESGGGLVQAGGSLRLSCAASGFTFYAYVMGWYRQAPGKERELVAAISGSGTSTYYADSVKGRFTISRDNAKNTVYLQMNSLKPEDTAVYYCAADYYPWDLDDDYWGQGTQVTVSS", "polyreactivity (PSR sort gate)": "high polyreactivity"}
{"sequence": "QVQLVESGGGLVQAGGSLRLSCAASGFTFYDNAMGWYRQAPGKERELVAAINWRSGSTYYADSVKGRFTISRDNAKNTVYLQMNSLKPEDTAVYYCAAGLVFHYYAPKSYYLGYDYWGQGTQVTVSS", "polyreactivity (PSR sort gate)": "low polyreactivity"}
{"sequence": "QVQLVESGGGLVQAGGSLRLSCAASGFTFYDNAMGWYRQAPGKERELVAAISWGGGSTYYADSVKGRFTISRDNAKNTVYLQMNSLKPEDTAVYYCNVYYGRVLLGFYYWGQGTQVTVSS", "polyreactivity (PSR sort gate)": "low polyreactivity"}
{"sequence": "QVQLVESGGGLVQAGGSLRLSCAASGFTFYEYAMGWYRQAPGKERELVAAINRRGGRTYYADSVKGRFTISRDNAKNTVYLQMNSLKPEDTAVYYCNTPVSDGGHYYSWGQGTQVTVSS", "polyreactivity (PSR sort gate)": "high polyreactivity"}
{"sequence": "QVQLVESGGGLVQAGGSLRLSCAASGFTFYEYSMGWYRQAPGKERELVAAINWNGGRTYYADSVKGRFTISRDNAKNTVYLQMNSLKPEDTAVYYCAARVAPKTKIYRRYYWGQGTQVTVSS", "polyreactivity (PSR sort gate)": "high polyreactivity"}
{"sequence": "QVQLVESGGGLVQAGGSLRLSCAASGFTFYFYAMGWYRQAPGKERELVAAITGGTSTYYADSVKGRFTISRDNAKNTVYFQRNSLKPEDTSVYYCAAGYLDVLWLLDLLQLYGYWGQGNQVTVSS", "polyreactivity (PSR sort gate)": "low polyreactivity"}
{"sequence": "QVQLVESGGGLVQAGGSLRLSCAASGFTFYFYAMGWYRQAPGKERELVATITIGGRTNYADSVKGRFTISRDNAKNTVYLQMNSLKPEDTAVYYCAAAYLWISRYSGYDYWGQGTQVTVSS", "polyreactivity (PSR sort gate)": "high polyreactivity"}
{"sequence": "QVQLVESGGGLVQAGGSLRLSCAASGFTFYFYAMGWYRQAPGKETELVAGISRGGSTTYADSVTGRFTISRDNAKNTVYLQRNSLKPHDTAVYYCAVGYDIVRYSYSPFYRYDYWGQGTQVTVSS", "polyreactivity (PSR sort gate)": "low polyreactivity"}
{"sequence": "QVQLVESGGGLVQAGGSLRLSCAASGFTFYGNALGWYRQAPGKARELVAAISRSGGSTYYADSVKGRFTISRDNAKNTVYLQMNSLKPDDTAVYYCAVYVRKWYAVTDQYSGSDYWGQGTQVTVSS", "polyreactivity (PSR sort gate)": "high polyreactivity"}
{"sequence": "QVQLVESGGGLVQAGGSLRLSCAASGFTFYGYAMGWYRQAPGKERELVAGISKNGGSTYYADSVKGRFTISRDNAKNTVYLQMNSLKPEDTAVYYCNKRSTLNTRRDYWGQGTQVTVSS", "polyreactivity (PSR sort gate)": "high polyreactivity"}
{"sequence": "QVQLVESGGGLVQAGGSLRLSCAASGFTFYGYAMGWYRQAPGKERELVAGITSGGRTYYADSVKGRFTISRDNAKNTVYLQMNSLKPEDTAVYYCAARRITWGRFDYWGQGTQVTVSS", "polyreactivity (PSR sort gate)": "high polyreactivity"}
{"sequence": "QVQLVESGGGLVQAGGSLRLSCAASGFTFYGYVMGWSRQAPGKERDLVAAITRGGNTYYADSVKGRITISRDNAKNTVYLQMNSLKPEDTAVYYCARDRSYWDKPRQRDGYWGQGTQVTVSS", "polyreactivity (PSR sort gate)": "low polyreactivity"}
{"sequence": "QVQLVESGGGLVQAGGSLRLSCAASGFTFYHNAMGWYRQAPGKERELVAAISSSGDSTYYADSVKGRFTIARDNAKNTVYLQMNSLKPEDTAVYYCNDYFYYLSQYYYYWFNYDYWGQGTQVTVSS", "polyreactivity (PSR sort gate)": "low polyreactivity"}
{"sequence": "QVQLVESGGGLVQAGGSLRLSCAASGFTFYHNAMGWYRQATGKERELVATITARGGRTYYADSVKGRFTISRDNAKNTVYLQMNSLKPVDTAVYYCNVKASRGYTYEYDYWGQGTQVTVSS", "polyreactivity (PSR sort gate)": "high polyreactivity"}
{"sequence": "QVQLVESGGGLVQAGGSLRLSCAASGFTFYIYAMGWYRQAPGKERELVASISARGGSTYYADSVKGRFTISRDNAKNTVYLQMNSLKPEDTAVYYCNALYNYAEIYGRGYWGQGTQVTVSS", "polyreactivity (PSR sort gate)": "high polyreactivity"}
{"sequence": "QVQLVESGGGLVQAGGSLRLSCAASGFTFYKNTMGWYRQAPGKERELVAAISYRGGTYYADSVKGRFTISRDNAKNTVYLQMNSLKPQDTAVYYCNARYRGKYSSYGYWGQGTQVTVSS", "polyreactivity (PSR sort gate)": "high polyreactivity"}
{"sequence": "QVQLVESGGGLVQAGGSLRLSCAASGFTFYKYVMGWYRPAPGKERELVAAITTSGGSTYYADSVKGRFTISRDNAKNTVYLQMNCLKPEDTAVYYCNARSLHTSEGDYWGQGTQVTVSS", "polyreactivity (PSR sort gate)": "low polyreactivity"}
{"sequence": "QVQLVESGGGLVQAGGSLRLSCAASGFTFYLYAMGWYRQAPGKERELVAAISSRGGTTYYADSVKGRFTISRDNAKNTVYLQMNSLKPEDTAVYYCNVARVYHIYDYWGQGTQVTVSS", "polyreactivity (PSR sort gate)": "high polyreactivity"}
{"sequence": "QVQLVESGGGLVQAGGSLRLSCAASGFTFYLYAMGWYRQAPGKERELVAAITYSAGSTYYADSVKGRFTISRDNAKNTVYLQMNSLKPEDTAVYYCAKRGHYRAWGGGGYWGQGTQVTVSS", "polyreactivity (PSR sort gate)": "low polyreactivity"}
{"sequence": "QVQLVESGGGLVQAGGSLRLSCAASGFTFYNNAMGGYRQAPGKERELVAVITSNGGRTYYADSVKGRFTISRDNAKNTVYLQMNSLKPEDTAVYYCAKRGYGYGDGAYYYWGQGTQVTVSS", "polyreactivity (PSR sort gate)": "low polyreactivity"}
{"sequence": "QVQLVESGGGLVQAGGSLRLSCAASGFTFYNNAMGWYRQAPGKERELVAGIARRGGSTSYADSVKGRFTISRDNAKNSVYLQMNSLKPEDTEVYYCAKQDYSPYYPYDYWGLGTQVTVSS", "polyreactivity (PSR sort gate)": "high polyreactivity"}
{"sequence": "QVQLVESGGGLVQAGGSLRLSCAASGFTFYNYAKGWYIQAPGNERELVAAITSRGGSTYYADSVKGRFTISRDNAKNTVYLQMNSLKPEDTAVYYCAAGYVHYGWFELDYWGQGTQVTVSS", "polyreactivity (PSR sort gate)": "low polyreactivity"}
{"sequence": "QVQLVESGGGLVQAGGSLRLSCAASGFTFYNYAMGWYRQAPGKERELVAAITSRGGSTYYADSVKGRFTISRDNAKNTVYLQMNSLKPEDTAVYYCNAVAKLYYWRYDYWGQGTQVTVSS", "polyreactivity (PSR sort gate)": "low polyreactivity"}
